Patent US20090297439A1 (METHERESIS TRANSLATIONAL RESEARCH, published 2009)

Biological target: T1, Met (UniProt P08581 25-932, limits assumed)
T1 construct: Met as the partner of the printed Kd; The assay and the construct are not described; also called HGFR; hepatocyte growth factor receptor
Assay: not stated (given as a property of the antibody in Material and Methods)

T1 sequence (P08581 25-932 limits assumed): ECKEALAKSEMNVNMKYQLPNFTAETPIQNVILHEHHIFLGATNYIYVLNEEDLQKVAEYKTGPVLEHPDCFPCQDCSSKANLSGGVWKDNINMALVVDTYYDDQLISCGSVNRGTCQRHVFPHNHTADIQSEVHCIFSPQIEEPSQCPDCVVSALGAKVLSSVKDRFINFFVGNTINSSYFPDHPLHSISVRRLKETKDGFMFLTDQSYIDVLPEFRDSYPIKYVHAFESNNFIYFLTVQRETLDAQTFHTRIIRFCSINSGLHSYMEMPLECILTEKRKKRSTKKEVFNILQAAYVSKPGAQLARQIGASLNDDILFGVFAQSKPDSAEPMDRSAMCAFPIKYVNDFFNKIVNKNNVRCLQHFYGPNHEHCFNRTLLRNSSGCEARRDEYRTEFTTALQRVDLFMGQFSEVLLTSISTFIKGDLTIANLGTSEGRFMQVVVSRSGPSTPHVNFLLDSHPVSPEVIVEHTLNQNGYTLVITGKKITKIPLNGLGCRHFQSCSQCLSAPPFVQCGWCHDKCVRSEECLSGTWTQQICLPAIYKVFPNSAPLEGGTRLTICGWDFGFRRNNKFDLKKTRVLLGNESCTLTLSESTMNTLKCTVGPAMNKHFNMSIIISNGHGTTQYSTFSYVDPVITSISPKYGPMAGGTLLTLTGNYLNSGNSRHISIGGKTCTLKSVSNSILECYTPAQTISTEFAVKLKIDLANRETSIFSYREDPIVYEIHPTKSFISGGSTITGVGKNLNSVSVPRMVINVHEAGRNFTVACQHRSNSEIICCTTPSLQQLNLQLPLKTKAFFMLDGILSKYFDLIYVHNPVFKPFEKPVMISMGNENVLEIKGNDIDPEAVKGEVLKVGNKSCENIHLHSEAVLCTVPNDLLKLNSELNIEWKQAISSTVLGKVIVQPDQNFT

B1: murine IgG2a MAb DN30 (antibody, V domains shown)
VH: QVQLQQPGTELVKPGASVKLSCKASGYTFTSYWIHWVKQRPGQGLEWIGEINPSSGRTNYNEKFKNKVTVTVDKSSTTAYMQLSNLTSEDSAVYYCASRGYWGQGTTLTVSS
VL: DIVLTQSPASLAVSLGQRATISCKASQSVDYDGGSYMSWFQQRPGQPPKLLISAASNLESGIPARFSGSGSGTDFTLNIHPVEEEDVATYYCQQSYEDPLTFGAGTKLELKR
notes: Murine IgG2a, intact MAb; also called anti-Met monoclonal antibody produced by the hybridoma cell line ICLC PD 05006
- Kd: 2.64 nM
